Sequences and labels used below:
B1: ERK4 (wild-type), GAL4 activation domain fusion [not stated] / DUSP2 (wild-type), GAL4 DNA-binding domain fusion [human] (parent complex)
chain 1: MAEKGDCIASVYGYDLGGRFVDFQPLGFGVNGLVLSAVDSRACRKVAVKKIALSDARSMKHALREIKIIRRLDHDNIVKVYEVLGPKGTDLQGELFKFSVAYIVQEYMETDLARLLEQGTLAEEHAKLFMYQLLRGLKYIHSANVLHRDLKPANIFISTEDLVLKIGDFGLARIVDQHYSHKGYLSEGLVTKWYRSPRLLLSPNNYTKAIDMWAAGCILAEMLTGRMLFAGAHELEQMQLILETIPVIREEDKDELLRVMPSFVSSTWEVKRPLRKLLPEVNSEAIDFLEKILTFNPMDRLTAEMGLQHPYMSPYSCPEDEPTSQHPFRIEDEIDDIVLMAANQSQLSNWDTCSSRYPVSLSSDLEWRPDRCQDASEVQRDPRAGSAPLAEDVQVDPRKDSHSSSERFLEQSHSSMERAFEADYGRSCDYKVGSPSYLDKLLWRDNKPHHYSEPKLILDLSHWKQAAGAPPTATGLADTGAREDEPASLFLEIAQWVKSTQGGPEHASPPADDPERRLSASPPGRPAPVDGGASPQFDLDVFISRALKLCTKPEDLPDNKLGDLNGACIPEHPGDLVQTEAFSKERW
chain 2: MGLEAARELECAALGTLLRDPREAERTLLLDCRPFLAFCRRHVRAARPVPWNALLRRRARGPPAAVLACLLPDRALRTRLVRGELARAVVLDEGSASVAELRPDSPAHVLLAALLHETRAGPTAVYFLRGGFDGFQGCCPDLCSEAPAPALPPTGDKTSRSDSRAPVYDQGGPVEILPYLFLGSCSHSSDLQGLQACGITAVLNVSASCPNHFEGLFRYKSIPVEDNQMVEISAWFQEAIGFIDWVKNSGGRVLVHCQAGISRSATICLAYLMQSRRVRLDEAFDFVKQRRGVISPNFSFMGQLLQFETQVLCH

This assay covers variants of B1. Nature of the assay: yeast two-hybrid, β-galactosidase reporter assay; triplicate; read off a plot.
For chain 1 D320N, the response is roughly 16.
